# Assay results from patent US20220332808A1, “HUMAN-DERIVED ANTI-HUNTINGTIN (HTT) ANTIBODIES AND USES THEREOF” (published 2022).
# Values joined by “and” are separate entries in the source; they are usually repeats but may differ in a detail not shown here. Equal entries are not always repeated. Where no end group is shown, it is not given here.
# B1: NI-302.35C1 (antibody, V domains shown)
# VH: EVQLVESGGNLVQPGGSLRLSCTASGFTFSITALSWVRQAPEKGPQWVSAITGNAYGTYYADSVKGRFTISRDNAKNTLYLQMNGLRAEDTAIYYCVKGIASDSSGYSAFWGPGTLVTVSS
# VL: EIVLTQSPATLSLSPGERATLSCRASQSVDNQFAWYQQKPGQAPRLLIYDASRRAPGIPDRFSGSGSGTDFTLTISSLEPEDFAIYYCQHRYTWLYTFGQGTRLEIK
# B2: NI-302.63F3 (antibody, V domains shown)
# VH: QVQLVQSGSAFKKPGTSVKVSCKASGYTFETRSMNWVRQAPGQGLEYMGWINTNTGNRTYVQAFRGRFVFSLDTSVSTAYLQISNLKTEDTAVYYCARGAGGGYWFDSWGQGTLVTVSS
# VL: DIQMTQSPDSLAVSLGERATINCKSNQSLFYSSNNNNYLAWYQHKSGQPPKLLVYWGSTRESGVPDRFSGSGSGTDFTLTISSLQAEDVAIYYCHQYYHNPYTFGQGTKLEIK
# B3: NI-302.33C11 (antibody, V domains shown)
# VH: EVQLVESGGGVVQPGNSLRLSCAASGFRFSDFGMHWVRQAPGKGLEWLALIWYDGGYKYYADSVKGRFTISRDNSKNTMFLQMNSLRAEDTAVYYCATHLEYCSRTTCYLGHWGQGTLVTVSS
# VL: DIQLTQSPSFLSASVGDTVTFTCRASQGISDYLAWFQQKPGIAPKLLIYAASTLQTGVPSRFSGSGSGTEFTLTIRSLQSEDFGTYYCQQLKTYPYTFGQGTKVEIK
# B4: NI-302.15F9 (antibody, V domains shown)
# VH: EVQLVESGGGLVTPGGSLRLSCEASGFLFKNSSMNWVRQTPGKGLEWVSSIDTSATNYKYYADSVKGRFTISRDDATNSLYLQMNSLRADDTATYYCARGYYTPRDFDYWGQGTLVTVSS
# VL: DVVMTQSPQTLSVSLGQAASISCRSSQSLLYRDNNTYLNWFHQRPGQSPRRLIYRASDRDSGVPDRFSGGGSGTDFTLKISGVEAEDVGTYYCMQGTHWPRTFGQGTKVEIK
# B5: NI-302.7D8 (antibody, V domains shown)
# VH: QVQLVQSGSELKKPGASVKVSCKASGYNFNNYAINWLRQAPGQGLEWMGWINTITGHPTYAQGFKGRFVFSLDTSVSTAYLQISSLKPEDTAVYYCARTYSNYGEFDYWGQGTLVTVSS
# VL: QSALTQPASVSGSRGQSITISCTGTSSDVGSYNLVSWYQQYPGKAPKLIIHEGSERPSGVSNRFSGSKSGNTASLTISGLQAEDEADYYCCSYAGTTTFVLFGGGTKLTVL
# What was measured:
# [1] = molecular target: T1, BSA-coupled C-terminal peptide of Htt Exon1 (the 14 C-terminal amino acids) (human, also: coupled to BSA); experiment: direct ELISA on BSA-coupled Htt Exon1 peptides
# T1 peptide: PPGPAVAEEPLHRP
# Method: (§1) To determine the half maximal effective concentration (EC₅₀) of recombinant human-derived HTT antibody NI-302.33C11 to BSA-coupled peptide fragments of the huntingtin Exon 1 direct ELISA with BSA-coupled Htt Exon1 domain peptides was performed.
# (§2) In brief, 96 well microplates (Corning) were coated with BSA-coupled synthetic peptides (Schafer-N, Denmark) of the N-terminal amino acid 1-19 ([…], SEQ ID No.: 93), the P-rich domain sequence ([…], SEQ ID No.: 94), the polyP repeat sequence ([…], SEQ ID No.: 95) or the 14 C-terminal amino acids ([…], SEQ ID No.: 96) or with the full lengths GST-HD49 Exon 1 protein at […] in coating buffer (15 mM Na2CO3, 35 mM NaHCO₃, pH 9.42). Non-specific binding sites were blocked for 1 h at RT with PBS/0.1% Tween®-20 containing 2% BSA (Sigma-Aldrich, Buchs, Switzerland). Primary antibodies were diluted to the indicated concentrations and incubated 1 h at RT. Binding was determined using donkey anti-human IgG Fcγ-specific antibody conjugated with HRP, followed by measurement of HRP activity in a standard colorimetric assay and the EC₅₀ values were estimated by a non-linear regression using GraphPad Prism software (San Diego, USA). […]
# GST-HttExon1Q49 (human) [2] = molecular target: GST-HttExon1Q49 (human) (UniProt P42858); experiment: direct ELISA
# GST-HttExon1Q49 (human), sequence (P42858 1-88, change not shown): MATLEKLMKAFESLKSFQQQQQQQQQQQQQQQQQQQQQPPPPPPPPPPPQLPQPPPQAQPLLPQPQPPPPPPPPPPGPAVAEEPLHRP
# [3] = molecular target: T2, C-terminal peptide of Htt Exon1 coated directly to the plate (not coupled to BSA) (human); experiment: direct ELISA, peptide coated directly
# T2 peptide: PPGPAVAEEPLHRP
# [4] = molecular target: HD49: huntingtin Exon1 protein with 49 polyQ repeats, GST tag cleaved off, aggregation reaction (human, UniProt P42858); experiment: direct ELISA, coated at 5 µg/ml
# Method: (§3) To determine the half maximal effective concentration (EC₅₀) of recombinant human-derived HTT antibody […] to soluble and aggregated huntingtin Exon1 proteins with 21 or 49 polyQ repeats direct ELISA was performed. In brief, 96 well microplates (Corning) were coated with either GST-HD21, GST-HD49 or aggregated HD21 or HD49 at a concentration of 5 μg/ml in coating buffer (15 mM Na2CO3, 35 mM NaHCO₃, pH 9.42). Nonspecific binding sites were blocked for 1 h at RT with PBS/0.1% Tween®-20 containing 2% BSA (Sigma-Aldrich, Buchs, Switzerland). Primary antibodies were diluted to the indicated concentrations and incubated 1 h at RT. Binding was determined using either a donkey anti-human IgG Fcγ-specific antibody conjugated with HRP or a goat anti-mouse IgG (H+L)-specific antibody conjugated with HRP, followed by measurement of HRP activity in a standard colorimetric assay. Subsequently, EC₅₀ values were estimated by a non-linear regression using GraphPad Prism software (San Diego, USA).
# (§4) To determine the half maximal effective concentration (EC₅₀) of recombinant human-derived HTT antibodies NI-302.35C1 and NI-302.72F10 to soluble and aggregated HTT Exon1 proteins with 21 or 49 polyQ repeats direct ELISA and EC50 determination was performed as described in Example 6, supra.
# (§5) To determine the half maximal effective concentration (EC₅₀) of recombinant human-derived HTT antibody NI-302.7D8 to soluble and aggregated HTT Exon1 proteins with 21 or 49 polyQ repeats direct ELISA and EC50 determination was performed as described in Example 6, supra.
# [5] = molecular target: all four species: aggregated HD49, aggregated HD21, soluble GST-HD49 and GST-HD21 Htt Exon 1 proteins; experiment: direct ELISA, coated at 5 µg/ml
# [6] = molecular target: T3, BSA-coupled polyP repeat peptide of Htt Exon1 (human, also: coupled to BSA); experiment: direct ELISA on BSA-coupled Htt Exon1 peptides
# T3 peptide: PPPPPPPPPPP
# Method: as §1, §2
# GST-HttExon1Q49 (human) [7] = molecular target: GST-HttExon1Q49 (human) (UniProt P42858); experiment: direct ELISA, coated at 5 µg/ml
# GST-HttExon1Q21 (human) = GST-HttExon1Q21 (human) (UniProt P42858); experiment: direct ELISA, coated at 5 µg/ml
# GST-HttExon1Q21 (human), sequence (P42858 1-88, change not shown): as above
# [8] = molecular target: HD21: huntingtin Exon1 protein with 21 polyQ repeats, GST tag cleaved off, aggregation reaction (human, UniProt P42858); experiment: direct ELISA, coated at 5 µg/ml
# Method: as §3, §4, §5
Binder,EC50 (GST-HttExon1Q49 (human) [2]),EC50 [4],EC50 [5],EC50 (GST-HttExon1Q49 (human) [7]),also measured
B1,3200 pM,~2700 pM,,,EC50 [1]: ~700 pM; EC50 [3]: > 100000 pM
B2,,,200 to 400 pM,,
B3,30 pM,~100 pM,,100 pM,EC50 [6]: 30 pM; EC50 (GST-HttExon1Q21 (human)): 100 pM; EC50 [8]: ~100 pM
B4,,,5000 pM and 35000 pM,,fold preference of HD49 vs. HD21 [5]: 5 fold
B5,,17000 pM,,6000 pM,
